Measured values: patent US20080032929A1

Experiments:
[1] = target: rabbit α-tropomyosin purified from ventricular muscle (rabbit) (UniProt P58772); test: ELISA solid phase protein binding: cTnT coated, serial dilutions of rabbit α-tropomyosin, detected with mAb CH1; concentration of tropomyosin for 50% maximum binding
[2] = target: bovine cardiac troponin I purified from ventricular muscle (bovine) (UniProt P08057); test: ELISA solid phase protein binding: cTnT coated, serial dilutions of bovine cardiac TnI, detected with mAb TnI-1; concentration of TnI required to reach 50% of maximum binding
[3] = target: bovine cardiac troponin T (bovine) (UniProt P13789)

| EC50 [1] [µM] | EC50 [2] [µM] | relative amounts of intact and NH2-terminal truncated cTnT, densitometry of mAb CT3 Western blots of µ-calpain treated bovine cardiac myofibrils (% intact cTnT) [3] | Substance |
| --- | --- | --- | --- |
| 0.0135 | 0.0153 | – | intact mouse cardiac troponin T (TnT4), expressed in E. coli (from UniProt P50752) |
| 0.00973 | 0.00873 | – | NH2-terminal truncated mouse cardiac troponin T (McTnT-ND72-291), reconstructed and expressed in E. coli (from UniProt P50752) |
| – | – | 1.5 | µ-calpain (Calbiochem) (enzyme) |
